Molecular target: BHRF1 (Epstein-Barr virus, UniProt P03182)
Conditions: FACS sort for binding signal after 400 nM BHRF1
Source text: This was reduced to 74 designs (Indexes-01 to 74) after filtering for strong interface binding energy, low monomer folding energy and a low number of buried unsatisfied hydrogen bonding atoms. Barcoded genes were synthesized (Table 3) and the library transformed in to yeast for surface display (6×10^5 transformants). […] The library was sorted by a single round of FACS for cells expressing surface protein (FIG. 1C; lane 1), for the 2% of cells with highest expression (lane 2), and for cells showing binding signal after incubation with 100 nM (lane 3) or 400 nM BHRF1 (lane 4). DNA from the naive and post-sorted populations was harvested and sequenced by Illumina deep sequencing, and the recovery of each designed sequence determined.
Binding of biotinylated protein to the yeast surface is detected with phycoerythrin-conjugated streptavidin (Invitrogen).
Yeast cells were sorted on a BD Influx cytometer operated by Spigot (BD Biosciences) and recovered in SDCAA media at 30° C. overnight. Yeast were lysed with 125 U/ml Zymolase at 37° C. for 5 h, and DNA was harvested (Zymoprep kit from Zymo Research). […] DNA was deep sequenced with a MiSeq™ sequencer (Illumina) and sequences were analyzed with adapted scripts from Enrich (Fowler et al., 2011). […]

Sequence of BHRF1 (P03182 1-161): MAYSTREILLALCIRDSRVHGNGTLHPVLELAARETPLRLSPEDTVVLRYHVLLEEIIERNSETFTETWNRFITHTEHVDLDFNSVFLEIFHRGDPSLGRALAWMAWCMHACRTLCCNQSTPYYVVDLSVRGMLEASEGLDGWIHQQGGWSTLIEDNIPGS

B1: Index 21: SEQ ID NO: 113; computational precursor for BbpD04 (protein)
chain: GFDWKKVLDKAKDLAENDVREAKQKLEEFYKKAMKLDLTQEMRRKLMLEWIAAMLMAIGDIFNAIEQGKQEADKLKKLGKVLSQLLDELKRRLEELKEEAALKAHDFGREFELKLLFG
modifications: optionally absent
- Log2 Enrichment Ratio: 400 nM BHRF1: BHRF1 −2.81

— patent publication US9750814B2, “Polypeptides to inhibit epstein barr viral protein BHRF1 and B cell lymphoma family proteins” (priority 2014, dated 2017)
